Results as given in paper PMC10450444.

Legend:
[1] = target: full-length VAMP2 (mouse His6-SUMO-VAMP2, residues 1-116) (mouse) (UniProt P63044)
Syntaxin1 (rat) = Syntaxin1 (rat) (UniProt P32851)
Sequence of Syntaxin1 (rat) (P32851 whole entry): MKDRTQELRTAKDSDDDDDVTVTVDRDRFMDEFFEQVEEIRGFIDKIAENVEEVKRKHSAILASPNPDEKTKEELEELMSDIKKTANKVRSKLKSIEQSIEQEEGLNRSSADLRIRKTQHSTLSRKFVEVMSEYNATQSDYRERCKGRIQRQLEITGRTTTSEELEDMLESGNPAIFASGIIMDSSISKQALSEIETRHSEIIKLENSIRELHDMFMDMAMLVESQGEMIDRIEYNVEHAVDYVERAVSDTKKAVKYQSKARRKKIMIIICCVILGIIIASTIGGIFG

Sequence of full-length VAMP2 (mouse His6-SUMO-VAMP2, residues 1-116) (mouse) (P63044 whole entry, the tested form may be a part): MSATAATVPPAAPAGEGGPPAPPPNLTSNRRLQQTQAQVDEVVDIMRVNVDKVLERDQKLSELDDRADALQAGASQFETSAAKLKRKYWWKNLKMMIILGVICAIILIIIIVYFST

single-vesicle fusion assay with 500 nM DHG: fraction of immobile clamped vesicles that fused upon 100 µM Ca2+ (wild type ~90%) [1] [%]	single-vesicle fusion assay with 500 nM DHG: fraction of immobile clamped vesicles that fused upon 100 µM Ca2+ (wild type ~90%) (Syntaxin1 (rat)) [%]	Substance
20	–	Munc13 D1358K (from UniProt Q62768 529-1407; Q62768 1453-1735) (domain or fragment)
–	20	Munc13 N1128A/F1131A (from UniProt Q62768 529-1407; Q62768 1453-1735) (domain or fragment)
